For one test, the target named is T1, PSMGFR N+20/C-27 peptide.
T1 construct: also called N+20/C-27 PSMGFR
T1 peptide: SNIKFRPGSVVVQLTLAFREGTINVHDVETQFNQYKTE
Put plainly: selection of clones on the immunizing peptide.

For another test, the target named is T2, PSMGFR N+9/C-9 peptide.
T2 peptide: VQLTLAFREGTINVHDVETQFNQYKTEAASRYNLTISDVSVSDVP
The experiment in a line: selection of clones on the immunizing peptide.

Test [1] addresses T3, C-10 peptide (C-10 PSMGFR).
T3 construct: also called PSMGFR C-10
T3 peptide: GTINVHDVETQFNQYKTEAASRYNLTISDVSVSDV
The experiment in a line: ELISA on peptides.

Test [2] addresses T4, PSMGFR peptide (Primary Sequence of the MUC1 Growth Factor Receptor).
T4 peptide: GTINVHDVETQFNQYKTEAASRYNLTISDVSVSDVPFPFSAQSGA
Put plainly: selection of clones on the immunizing peptide.

In test [3] the target is T5, N-10 peptide (N-10 PSMGFR).
T5 construct: also called PSMGFR N-10
T5 peptide: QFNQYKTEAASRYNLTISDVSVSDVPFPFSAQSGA
The experiment in a line: peptide binding, told in legend.

For test [4], the target named is T3, C-10 peptide (C-10 PSMGFR). The experiment in a line: binding to peptides (ELISA, FIG. 39). The procedure:
(§1) All monoclonal antibodies were first selected based on their ability to bind to the immunizing peptide. To further elucidate the epitope within that peptide to which the antibody binds, antibodies were tested for their ability to bind to the PSMGFR peptide, the N−10 peptide or the C−10 peptide.

The target in test [5] is T5, N-10 peptide (N-10 PSMGFR). Put plainly: peptide binding, told in text.
Test [6] concerns the target T5, N-10 peptide (N-10 PSMGFR). Put plainly: ELISA on peptides (FIG. 39). As for the experimental part: as §1

B1: 31A1 monoclonal anti-MUC1* antibody (antibody, V domains shown)
VH: QVQLQQSGAELAKPGASVKMSCKASGYTFTSYWMHWVKQRPGQGLEWIGYINPSTGYTEYNQKFKDKATLTADKSSSTAYMQLSSLTSEDSAVYYCARAYIDYWGQGTTLTVSS
VL: DVLMTQTPLSLPVSLGDQASFSCRSSQSIVHSNGNTYLEWYLQKPGQSPKLLIYKVSNRFSGVPDRFSGSGSGTDFTLKINRVEAEDLGVYYCFQVSHFPWTFGGGTKLEIK
notes: Immunogen PSMGFR N+20/C-27 peptide; also called Antibody 31A1
Regarding B1, the binding result with PSMGFR N+20/C-27 peptide is “binds”.

B2: 39H5 monoclonal anti-MUC1* antibody (antibody, V domains shown)
VH: QIQLVQSGPELKKPGETVKISCKASGYTFTNYGMNWVKQAPGKGLKWMGWINTYTGEPTYVGDFKGRFAFSLETSASTAYLQINNLKNEDTATYFCVRGIHGYVDYWGQGTTLTVSS
VL: DVLMTQTPLSLPVSLGDQASISCRSSQSIVHRNGNTYLEWYLQKPGQSPKLLIYKVSNRFSGVPDRFSGSGSGTDFTLKISRVEAEDLGVYYCFQGSHLPWTFGGGTKLEIK
notes: Immunogen PSMGFR N+9/C-9 peptide; also called Antibody 39H5
As to B2, the binding result in the test with PSMGFR N+9/C-9 peptide is “binds”.

B3: 18G12 monoclonal anti-MUC1* antibody (antibody, V domains shown)
VH: QVQLQQSGAELVKPGASVKLSCKASGYTFTGYFLYWVKQRPGQGLEWIGGINPDNGGIDFNEKFRNKATLTVDKSSSTAYMQLSSLTSEDSAVYYCTLLIGNYWGQGTTLTVSS
VL: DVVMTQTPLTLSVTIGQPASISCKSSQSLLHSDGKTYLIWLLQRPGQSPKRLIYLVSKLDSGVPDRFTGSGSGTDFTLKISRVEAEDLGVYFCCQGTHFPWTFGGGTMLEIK
notes: Immunogen PSMGFR peptide; also called Antibody 18G12
As to B3, the binding result in test [1] and in test [2] was “binds” in each case.

B4: 28F9 monoclonal anti-MUC1* antibody (antibody, V domains shown)
VH: QVQLQQPGAELVQPGASVKLSCKASGYTFTGYFLYWVKQRPGHGLEWIGGIHPSNGDTDFNEKFKNKATLTVDISSSTAYMQLSSLTSEDSAVYYCTLLIGVYWGQGTTLTVSS
VL: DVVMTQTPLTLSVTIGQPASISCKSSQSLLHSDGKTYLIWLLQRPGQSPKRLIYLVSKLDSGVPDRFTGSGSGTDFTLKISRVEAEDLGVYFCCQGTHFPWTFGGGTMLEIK
notes: Anti-PSMGFR antibody; also called Antibody 28F9
With B4, the binding result in test [1] and in test [2] was “binds” in each case.

B5: 25E6 monoclonal anti-MUC1* antibody (antibody, V domains shown)
VH: EVQLVESGGDLVKPGGSLKLSCAASGFTFSSYGMSWVRQTPDKRLEWVATISNGGRHTFYPDSVKGRFTISRDNAKNTLYLQMSSLKSEDTAMYLCVRQTGTEGWFAYWGQGTLVTVSA
VL: not shown
notes: Immunogen PSMGFR peptide; also called Antibody 25E6
For B5, the binding result in test [3] and in test [2] was “binds” throughout.

B6: 20A10 monoclonal anti-MUC1* antibody (antibody, V domains shown)
VH: EVMLVESGGGLVKPGGSLKLSCAASGFTFSTYAMSWIRQTPEKRLEWVASIGRAGSTYYSDSVKGRFTISRDNVRNILYLQMSSLRSEDTAMYYCARGPIYNDYDEFAYWGQGTLVTVSA
VL: NIMMTQSPSSLAVSAGEKVTMSCKSSQSVLYSSNQKNYLAWYQQKPGQSPKLLIYWASTRESGVPDRFTGSGSGTDFTLTISSVQAEDLAVYYCHQYLSSLTFGAGTKLELK
notes: Immunogen PSMGFR peptide; also called Antibody 20A10
Regarding B6, the binding result in test [4] is given as “no binding”; in test [5], “binds”; in test [2], “binds”.

B7: 18B4 monoclonal anti-MUC1* antibody (antibody, V domains shown)
VH: EVKLEESGGGLVQPGGSMKLSCAASGFTFNDAWMDWVRQSPEKGLEWVAEIRSTANIHTTYYAESVQGRFTISRDDSKSSVYLQMNSLRAEDTGIYYCTPLLYGFAYWGQGTLVTVSA
VL: DVVMTQSPLSLPVSLGDQASISCRTSQSLVHSNGNTYLHWHLQKPGQSPKVLIYKVSSRFSGVPDRFSGSGSGTDFTLKISRVEAEDLGVYFCSQNTHVPYTFGGGTKLEIK
notes: Immunogen PSMGFR peptide; also called Antibody 18B4
As for B7, the binding result was “binds” in test [1], “no binding” in test [6] and “binds” in test [2].

B8: 32C1 monoclonal anti-MUC1* antibody (antibody, V domains shown)
VH: EVKLEESGGGLVQSGGSMKLSCVASGFTFSNYWMNWVRQSPEKGLEWVAEIRLKSNNYAIHYAESVKGRFTISRDDSKSSVYLQMNNLRAEDTGIYYCTRVPGLDAYWGQGTLVTVSA
VL: DVVMTQTPLSLPVSLGDQASISCRSSQSLVHSNGNTYLHWYLQKPGQSPKLLIYKVSNRFSGVPDRFSGSGSGTDFTLKISSVEAEDLGVYFCSQITHVPYTFGGGTNLEIK
notes: Immunogen PSMGFR N+20/C-27 peptide; also called Antibody 32C1
Regarding B8, the binding result with PSMGFR N+20/C-27 peptide is recorded as “binds”.

B9: 1E4 monoclonal anti-MUC1* antibody (antibody, V domains shown)
VH: QVQLQQSGAELVRPGSSVKISCKASGYAFSTYWMNWVKQRPGQGLEWIGQIYPGDSDTNYNGKFKGKATLTADKSSNTAYMQLSSLTSEDSAVFFCARGNHASMDYWGQGTSVTVSS
VL: DVVMTQTPLSLPVSLGDQASISCRSSQSLVHSNGNTYLHWYLQKPGQSPKLLIYKVSNRFSGVPDRFSGSGSGTDFTLKISRVEAEDLGVYFCSQKTHVPWTFGGGTKLEIK
notes: Immunogen PSMGFR N+20/C-27 peptide; also called Antibody 1E4
For the molecule B9, the binding result with PSMGFR N+20/C-27 peptide is given as “binds”.

B10: 29H1 monoclonal anti-MUC1* antibody (antibody, V domains shown)
VH: EVKLEESGGGLVQPGGSMKLSCAASGFTFSDAWMDWVRQSPEKGLEWVAEIRSKATNHATYYAESVKGRFTISRDDSKSSVYLQMNSLRAEDTGIYYCTPLLYGFAYWGQGTLVTVSA
VL: DVVMTQTPLSLPVSLGDQASISCRSGQSLVHSNGHTYLHWYLQKPGQSPRLLIYKVSNRFSGVPDRFSGSGSRADFTLKISRVEAEDLGVYFCSQTTHVPWTFGGGTKLEIK
notes: Immunogen PSMGFR N+20/C-27 peptide; also called Antibody 29H1
In the case of B10, in the test with PSMGFR N+20/C-27 peptide, the binding result is recorded as “binds”.

B11: 3C5 monoclonal anti-MUC1* antibody (antibody, V domains shown)
VH: QIQLVQSGPELKKPGETVKISCKASGYTFTNYGMNWVKQAPGKGLKWMGWINTYTGKPTYADDFKGRFAFSLETSASTAYLQINNLKNEDTATYFCARGGLDGYYGYWGQGTTLTVSS
VL: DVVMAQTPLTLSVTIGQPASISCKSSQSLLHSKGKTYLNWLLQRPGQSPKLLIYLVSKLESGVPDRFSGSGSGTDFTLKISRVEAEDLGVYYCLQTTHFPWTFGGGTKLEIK
notes: Immunogen PSMGFR N+9/C-9 peptide; also called Antibody 3C5
In the case of B11, in the test with PSMGFR N+9/C-9 peptide, the binding result is “binds”.

These data come from US20200407462A1 (MINERVA BIOTECHNOLOGIES, published 2020).
